From US20180327501A1 (CARSGEN THERAPEUTICS, published 2018) come the findings set out here.

Where a chain is given by its changes, count along the chain named.

The labels stand for the following.
B1: single chain antibody Y022 displayed on phage (scFv)
scFv: DIQMTQSPSSLSASVGDRVTITCHASQDINVNIGWLQQKPGKAFKGLIYHGKNLEDGVPSRFSGSGSGTDFTLTISSLQPEDFATYYCNQYENIPLTFGQGTKVEIKRGGGGSGGGGSGGGGSDVQLVESGGGLVQPGGSLRLSCAVSGYSITSDYAWNWIRQAPGKGLEWLGYISYRGRTQYNPSLKSRISITRDNSKNTFFLQLNSLRAEDTAVYYCARMGKNWDYWGQGTLVTVSS
notes: 12 mutations against 7B3; not shown: fusion to M13 phage coat protein from phagemid pCANTAB 5E (pCantab 5E-Y022)
B2: scFv-Y022-Fc (Fc fusion)
chain: B1 scFv
notes: Expressed in HEK-293F cells, protein A purified; also called single chain antibody Y022; V5-scFv-Y022-Fc; not shown: Fc fragment of human IgG1 from vector pCMV-V5-Fc, fused downstream of the multiple cloning site; limits and junction res
B3: M14/CD3 single chain bifunctional antibody (bispecific antibody, part only; not given: linker, anti-CD3 scFv, His tag, not shown: another chain or arm of the molecule)
chain: B1 scFv with V31S, I94N, L96I, Q182N, M222L, K224R, N225G, W226F, D227R
B4: S8/CD3 single chain bifunctional antibody (bispecific antibody, part only; not given: linker, anti-CD3 scFv, His tag, not shown: another chain or arm of the molecule)
chain: B1 scFv with A43S, I94N, L96I, Q182S, M222L, K224R, N225G, W226F, D227R
B5: M15/CD3 single chain bifunctional antibody (bispecific antibody, part only; not given: linker, anti-CD3 scFv, His tag, not shown: another chain or arm of the molecule)
chain: B1 scFv with I94N, L96I, Q182S, M222L, K224R, N225G, W226F, D227R
B6: S29/CD3 single chain bifunctional antibody (bispecific antibody, part only; not given: linker, anti-CD3 scFv, His tag, not shown: another chain or arm of the molecule)
chain: B1 scFv with I94F, Q182R, M222L, K224R, N225G, W226F, D227R
B7: S23/CD3 single chain bifunctional antibody (bispecific antibody, part only; not given: linker, anti-CD3 scFv, His tag, not shown: another chain or arm of the molecule)
chain: B1 scFv with A43S, I94N, Q182R, M222L, K224R, N225G, W226F, D227R
B8: M25/CD3 single chain bifunctional antibody (bispecific antibody, part only; not given: linker, anti-CD3 scFv, His tag, not shown: another chain or arm of the molecule)
chain: B1 scFv with Q182R, M222L, K224R, N225G, W226F, D227R
B9: S7/CD3 single chain bifunctional antibody (bispecific antibody, part only; not given: linker, anti-CD3 scFv, His tag, not shown: another chain or arm of the molecule)
chain: B1 scFv with K52T, I94N, L96I, Q182S, M222L, K224R, N225G, W226F, D227R
B10: M26/CD3 single chain bifunctional antibody (bispecific antibody, part only; not given: linker, anti-CD3 scFv, His tag, not shown: another chain or arm of the molecule)
chain: B1 scFv with M222L, K224R, N225G, W226F, D227R
B11: S22/CD3 single chain bifunctional antibody (bispecific antibody, part only; not given: linker, anti-CD3 scFv, His tag, not shown: another chain or arm of the molecule)
chain: B1 scFv with K52T, I94N, Q182R, M222L, K224R, N225G, W226F, D227R
B12: S17/CD3 single chain bifunctional antibody (bispecific antibody, part only; not given: linker, anti-CD3 scFv, His tag, not shown: another chain or arm of the molecule)
chain: B1 scFv with V31T, I94N, M222L, K224R, N225G, W226F, D227R
B13: antibody 7B3, single chain antibody with carboxy-terminal 6xhistidine, produced in E. coli (scFv)
scFv: DIQMTQSPSSLSASVGDRVTITCHASQDINSNIGWLQQKPGKAFKGLIYHGKNLEDGVPSRFSGSGSGTDFTLTISSLQPEDFATYYCVQYAQFPYTFGQGTKVEIKRGGGGSGGGGSGGGGSDVQLVESGGGLVQPGGSLRLSCAVSGYSITSDYAWNWIRQAPGKGLEWLGYISYRGRTSYNPSLKSRISITRDNSKNTFFLQLNSLRAEDTAVYYCARLGRGFRYWGQGTLVTVSSHHHHHH
B14: antibody Y022, single chain antibody with carboxy-terminal 6xhistidine, produced in E. coli (scFv)
scFv: DIQMTQSPSSLSASVGDRVTITCHASQDINVNIGWLQQKPGKAFKGLIYHGKNLEDGVPSRFSGSGSGTDFTLTISSLQPEDFATYYCNQYENIPLTFGQGTKVEIKRGGGGSGGGGSGGGGSDVQLVESGGGLVQPGGSLRLSCAVSGYSITSDYAWNWIRQAPGKGLEWLGYISYRGRTQYNPSLKSRISITRDNSKNTFFLQLNSLRAEDTAVYYCARMGKNWDYWGQGTLVTVSSHHHHHH

T1 sequence (P69168 19-235 limits assumed): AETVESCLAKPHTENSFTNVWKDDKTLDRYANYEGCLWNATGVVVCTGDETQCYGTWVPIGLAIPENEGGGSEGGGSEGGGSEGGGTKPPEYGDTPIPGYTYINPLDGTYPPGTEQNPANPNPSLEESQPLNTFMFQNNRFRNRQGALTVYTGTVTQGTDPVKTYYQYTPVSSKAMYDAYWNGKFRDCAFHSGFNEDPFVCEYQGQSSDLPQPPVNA

One assay concerns the target T1, N1N2 (control protein) (M13 phage, UniProt P69168 19-235, limits assumed).
T1 construct: domain: N1N2 domain; Negative control protein in the phage ELISA
Nature of the assay: single phage ELISA, 100 ng/well coated protein. How it is done: (§1) Each well was blocked with PBST containing 2% BSA (w/v). The wells were then washed with PBST for three times. Then, each phage solution prepared above was added to each well of the plate at 100 μl/well. After incubation for 2 hours at 37° C., it was washed for three times with PBST. To detect bound phage, anti-M13 antibody […] conjugate (purchased from GE Healthcare) was diluted at 1:5000 in PBST and 100 μl was added to each well. After incubating at 37° C. for 1 hour, the wells were rinsed for three times with PBST and then rinsed for three times with PBS. Finally, 50 μl of TMB substrate was added into the wells and developed for 10 minutes at room temperature, followed by addition of 50 μl of 2M H₂SO₄ per well to stop the color reaction. Extinction values were measured at 450 nm with an enzyme-linked immunosorbent (Bio-Rad).
(§2) All of the altered amino acid positions include S31 in the light chain CDR1 region, V89, A92, Q93, F94 and Y96 in the light chain CDR3 region, 5182 in the heavy chain CDR2 region, L222, R224, G225, F226 and R227 in the heavy chain CDR3 region.
On the technique in general: An ELISA detects its analyte on a solid surface through an enzyme-linked reagent.
Consider B1, for which the binding result is “no binding”.

The target in the next assay is T2, BSA (bovine serum albumin) (bovine, UniProt P02769 25-607).
T2 construct: Negative control protein in the phage ELISA
T2 sequence (P02769 25-607 limits assumed): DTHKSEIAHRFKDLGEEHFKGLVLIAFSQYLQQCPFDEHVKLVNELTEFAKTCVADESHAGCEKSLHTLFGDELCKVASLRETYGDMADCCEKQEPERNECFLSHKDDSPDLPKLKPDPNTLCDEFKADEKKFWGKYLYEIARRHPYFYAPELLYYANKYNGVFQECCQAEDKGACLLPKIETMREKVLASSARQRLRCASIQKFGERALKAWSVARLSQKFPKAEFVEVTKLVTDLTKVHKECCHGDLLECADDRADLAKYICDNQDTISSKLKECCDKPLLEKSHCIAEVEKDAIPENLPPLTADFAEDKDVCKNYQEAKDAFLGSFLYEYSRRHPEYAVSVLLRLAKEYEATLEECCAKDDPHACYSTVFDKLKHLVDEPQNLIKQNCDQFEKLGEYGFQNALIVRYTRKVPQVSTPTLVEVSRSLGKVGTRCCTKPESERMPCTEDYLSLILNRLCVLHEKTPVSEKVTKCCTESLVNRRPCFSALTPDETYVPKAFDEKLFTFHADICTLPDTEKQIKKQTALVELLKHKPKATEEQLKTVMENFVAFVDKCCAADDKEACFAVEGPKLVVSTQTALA
Nature of the assay: single phage ELISA, 100 ng/well coated protein. The method, then: as §1, §2
As to B1, the binding result is “no binding”.

Another assay has as its target T3, EGFRvIII on U87-EGFRvIII cells (human, UniProt P00533 25-1210).
T3 construct: whole, on cells; EGFRvIII is a deletion variant of it; also called U87MG-EGFRvIII; mutant human EGFR
Nature of the assay: FACS on U87-EGFRvIII cells, 20 µg/ml. How it is done: 2) Cells were digested with 10 mM EDTA and cells were collected by centrifugation at 200 g for 5 min. Cells were resuspended in 1% phosphate buffered saline (NBS PBS) containing calf serum at a concentration of 1×10⁶ to 1×10⁷/mL, and added in a flow tube in an amount of 100 μl/tube.
And PBS was used as a negative control. The final concentration of antibody was 20 μg/ml, 100 μl was added to each tube and placed in an ice bath for 45 minutes.
As for B2, the binding result is recorded as “binds”.

For another assay, the target named is T3, EGFRvIII on U87-EGFRvIII cells. Briefly: FACS on U87MG-EGFRvIII cells, method of Example 9; PBS control 1.
B3 gave a mean fluorescence intensity (MFI) of 36.5.
Same read-out and setting: as for B4, the figure is 38.5.
B5 registered a mean fluorescence intensity (MFI) of 37.9.
The same measure, in the same setting: to B6 belongs 34.6; to B7, 32.2; to B8, 36.5.
In turn, B9 gave a mean fluorescence intensity (MFI) of 42.2.
B10 returned a mean fluorescence intensity (MFI) of 41.4.
Still for that read-out and setting: as for B11, the figure is 31.3; as for B12, 31.6.

The target of the next assay is T4, antigen EGFRvIII (purchased protein) (UniProt P00533 25-645, limits assumed).
T4 construct: also called EGFRvIII antigen; biotin-labeled antigen EGFRvIII
Briefly: concentration gradient ELISA, EGFRvIII coated 200 ng/well, anti-His-tag detection, non-linear fit.
Method: Binding activity of an antibody to antigen EGFRvIII was determined by concentration gradient ELISA assay. For this purpose, the antigen EGFRvIII was diluted with 0.1 M NaHCO₃ (pH 9.6) coating solution and each well was coated with 200 ng at 50 μl/well overnight at 4° C. and blocked with PBST containing 2% (w/v) BSA for 2 hours at room temperature. The plate was then rinsed for three times with PBST. […] After incubation for 2 hours at 37° C., plate was rinsed for three times with PBST followed by adding 100 μl/well of a 1:2000 dilution of mouse anti-His-tag antibody (available from Santa cruz) for 1 hour at 37° C. To test the bound antibody, HRP-labeled goat anti-mouse antibody (purchased from Santa Cruz) was diluted in PBST at a 1:15,000 dilution and 100 μl per well was added and incubated at 37° C. for 1 hour. […] The chromogenic reaction was stopped with 50 μl of 2 M H₂SO₄ per well and extinction value was measured at 450 nm using enzyme-linked immunoassay (Bio-Rad). The absorbance values obtained were evaluated using Sigma Plot software and the binding strength of an antibody was calculated. For this purpose, the extinction value measured in each case was plotted against the corresponding antibody concentration and the resulting curve was fitted using the following non-linear regression.
The term Kd denotes the constant that tells how readily two partners part at equilibrium. A lower Kd goes with tighter binding. Molecule B13 displayed a dissociation constant Kd of around 22.4 nM.
On the same count and under the same terms, to B14 belongs around 2.7 nM.

The target in a further assay is EGFR on the cell surface (human) (UniProt P00533). Briefly: FACS on CAL 27 cells, method of Example 9; PBS control 3.11.
The molecule B3 returned a mean fluorescence intensity (MFI) of 28.4.
In the case of B4, the mean fluorescence intensity (MFI) stood at 30.
Same read-out and setting: to B5 belongs 29.4; to B6, 25.7; to B7, 29.7.
The same measure, in the same setting: to B8 belongs 24.1; to B9, 27.9; to B10, 24.6.
On the same count and under the same terms, as for B11, the figure is 24.6; as for B12, 25.
